According to US20240059799A1 (Pfizer, published 2024):

T1: recombinant rat TL1A (rat, UniProt Q8K3Y7 76-252)
T1 construct: biotinylated for SPR capture
T1 sequence: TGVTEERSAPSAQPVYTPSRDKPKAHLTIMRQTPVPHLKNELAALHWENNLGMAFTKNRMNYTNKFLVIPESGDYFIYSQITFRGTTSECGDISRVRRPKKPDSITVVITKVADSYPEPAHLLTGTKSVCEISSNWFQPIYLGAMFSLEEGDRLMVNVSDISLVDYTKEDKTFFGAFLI

T2: recombinant mouse TL1A (mouse, UniProt Q5UBV8 75-252)
T2 construct: biotinylated for SPR capture
T2 chain: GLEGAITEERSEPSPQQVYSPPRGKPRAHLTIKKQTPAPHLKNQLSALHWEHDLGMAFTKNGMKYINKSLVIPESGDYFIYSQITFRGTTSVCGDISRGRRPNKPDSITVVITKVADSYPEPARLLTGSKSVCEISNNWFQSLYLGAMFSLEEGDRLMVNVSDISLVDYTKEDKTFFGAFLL

T3: rat IL-23 (rat, UniProt P43432 23-335; Q91Z84 22-196, limits assumed)
T3 chain 1: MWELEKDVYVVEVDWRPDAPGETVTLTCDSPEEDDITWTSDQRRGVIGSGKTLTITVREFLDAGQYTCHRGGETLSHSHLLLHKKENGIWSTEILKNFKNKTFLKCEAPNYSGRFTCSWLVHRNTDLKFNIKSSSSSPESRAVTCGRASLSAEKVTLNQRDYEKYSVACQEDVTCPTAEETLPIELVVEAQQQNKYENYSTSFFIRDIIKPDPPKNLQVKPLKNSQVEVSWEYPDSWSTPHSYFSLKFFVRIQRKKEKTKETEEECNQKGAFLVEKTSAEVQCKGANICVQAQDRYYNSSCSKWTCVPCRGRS
T3 chain 2: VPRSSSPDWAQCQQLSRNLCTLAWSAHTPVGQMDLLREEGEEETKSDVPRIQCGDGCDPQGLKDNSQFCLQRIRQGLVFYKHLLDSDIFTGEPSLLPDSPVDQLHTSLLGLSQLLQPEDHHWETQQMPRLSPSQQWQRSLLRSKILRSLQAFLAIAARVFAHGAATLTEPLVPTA

T4: recombinant rat TL1A (rat, UniProt Q8K3Y7 76-252)
T4 sequence: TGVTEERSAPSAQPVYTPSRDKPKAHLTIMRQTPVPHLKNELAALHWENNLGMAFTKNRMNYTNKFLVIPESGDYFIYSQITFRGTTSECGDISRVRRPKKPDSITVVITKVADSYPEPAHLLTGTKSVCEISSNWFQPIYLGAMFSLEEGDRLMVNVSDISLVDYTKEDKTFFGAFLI

T5: recombinant human TL1A (human, UniProt O95150 71-251)
T5 construct: TL1A is described as a homotrimer; Biotinylated for SPR capture; also called TNFSF15
T5 chain: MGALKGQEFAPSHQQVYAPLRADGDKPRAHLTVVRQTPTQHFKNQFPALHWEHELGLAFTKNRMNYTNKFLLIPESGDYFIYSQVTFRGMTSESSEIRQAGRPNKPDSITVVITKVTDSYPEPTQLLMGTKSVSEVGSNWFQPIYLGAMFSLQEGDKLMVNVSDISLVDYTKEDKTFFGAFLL

T6: recombinant cynomolgus monkey TL1A (cynomolgus monkey, UniProt O95150 72-251 (human entry))
T6 construct: also called Cyno TL1A
T6 chain: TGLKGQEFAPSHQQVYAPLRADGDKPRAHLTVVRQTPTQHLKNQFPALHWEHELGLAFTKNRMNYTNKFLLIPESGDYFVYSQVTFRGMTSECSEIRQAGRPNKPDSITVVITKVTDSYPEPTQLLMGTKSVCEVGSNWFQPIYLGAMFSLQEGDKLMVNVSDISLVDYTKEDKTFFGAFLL

T7: recombinant mouse TL1A (mouse, UniProt Q5UBV8 75-252)
T7 chain: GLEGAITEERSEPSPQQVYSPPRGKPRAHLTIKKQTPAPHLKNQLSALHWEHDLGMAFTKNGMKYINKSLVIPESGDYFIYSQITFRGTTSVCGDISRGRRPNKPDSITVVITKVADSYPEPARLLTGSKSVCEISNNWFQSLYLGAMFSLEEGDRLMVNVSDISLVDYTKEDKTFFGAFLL

T8: cynomolgus monkey IL-12 (cynomolgus monkey)
T8 construct: also called cyno IL-12
T8 chain 1: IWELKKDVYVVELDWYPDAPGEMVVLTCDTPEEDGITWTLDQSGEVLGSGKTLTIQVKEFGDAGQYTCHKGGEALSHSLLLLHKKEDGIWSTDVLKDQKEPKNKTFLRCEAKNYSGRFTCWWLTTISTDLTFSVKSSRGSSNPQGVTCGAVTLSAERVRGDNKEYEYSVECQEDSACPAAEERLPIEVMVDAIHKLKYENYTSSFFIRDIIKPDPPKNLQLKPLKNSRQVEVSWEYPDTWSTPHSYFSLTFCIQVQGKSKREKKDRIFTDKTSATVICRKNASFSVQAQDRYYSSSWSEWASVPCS
T8 chain 2: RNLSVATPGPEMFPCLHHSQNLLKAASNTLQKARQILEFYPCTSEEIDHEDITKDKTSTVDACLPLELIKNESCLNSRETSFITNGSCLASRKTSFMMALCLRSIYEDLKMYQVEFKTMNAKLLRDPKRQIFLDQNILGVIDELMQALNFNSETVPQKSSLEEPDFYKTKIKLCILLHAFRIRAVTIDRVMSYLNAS


How the values were obtained:
[1] = molecular target: T1, recombinant rat TL1A; experiment: SPR, antibody injected over captured biotinylated TL1A, 37° C.
Method: (§1) For these analyses, kinetic assays were conducted at 37° C. using a collection rate of 10 Hz on a Biacore™ T200 instrument (GE Healthcare). […] The association phase was 90 seconds, and the dissociation phases were 1600 seconds over human, cynomolgus monkey and rabbit TL1A and 180 seconds for mouse and rat TL1A.
(§2) In order to determine binding to TL1A, kinetic assays were conducted at 37° C. using a collection rate of 10 Hz on a Biacore™ T200 instrument (GE Healthcare).

[2] = molecular target: T2, recombinant mouse TL1A; experiment: as above
Method: as §1, §2

[3] = molecular target: T3, rat IL-23; experiment: SPR, antibody captured by anti-human Fc, cytokine injected
Method: (§3) In order to determine binding to TL1A, kinetic assays were conducted at 37° C. using a collection rate of 10 Hz on a Biacore™ T200 instrument (GE Healthcare). […] For the analysis of the p40 binding arm, kinetic assays were conducted at 37° C. using a collection rate of 10 Hz on a Biacore™ 8 K+ instrument (GE Healthcare).

[4] = molecular target: T4, recombinant rat TL1A; experiment: SPR, Biacore T200, 37 C; biotinylated TL1A captured on Biotin CAPture chip, antibody injected
Method: as §3

[5] = molecular target: T5, recombinant human TL1A; experiment: as above
Method: as §3

[6] = molecular target: T6, recombinant cynomolgus monkey TL1A; experiment: as above
Method: as §3

[7] = molecular target: T7, recombinant mouse TL1A; experiment: as above
Method: as §3

[8] = molecular target: T8, cynomolgus monkey IL-12; experiment: SPR, Biacore 8K+, 37 C; antibody captured by anti-human Fc, cytokine injected
Method: as §3

Binder | binding result [1] | binding result [2] | binding result [3] | koff [4] [s⁻¹] | kon [4] [M⁻¹ s⁻¹] | Kd [5] [nM] | koff [5] [s⁻¹] | kon [5] [M⁻¹ s⁻¹] | Kd [6] [nM] | koff [6] [s⁻¹] | kon [6] [M⁻¹ s⁻¹] | Kd [7] [nM] | koff [7] [s⁻¹] | kon [7] [M⁻¹ s⁻¹] | Kd [8] [nM] | koff [8] [s⁻¹] | kon [8] [M⁻¹ s⁻¹]
p40TL1A-0033 (bispecific antibody, human IgG1, kappa, KiH modified-Fd bispecific: TL1A VL-CL-Fc (hole), TL1A mFd, p40 HC (knob), p40 LC; LS) chain 1: not shown chain 2: QVQLVQSGAEVKKPGASVKVSCKASGYDYTYYGISWVRQAPGQGLEWMGWISTYNTGTHYAPSLQGRVTMTTDTSTSTAYMELRSLRSDDTAVYYCARESYYGSGAFRGGMDVWGQGTTVTVSSASTKGPSVFPLAPSSKSTSGGTAALGCLVKDYFPEPVTVSWNSGALTSGVHTFPAVLQSSGLYSLSSVVTVPSSSLGTQTYICNVNHKPSNTKVDKKVEPKSC heavy: EVQLVQSGAEVKKPGESLKISCKGSGYSFTTYWLGWVRQMPGKGLDWIGIMSPVDSDIRYSPSFQGQVTMSVDKSITTAYLQWNSLKASDTAMYYCARRRPGQGYFDFWGQGTLVTVSSASTKGPSVFPLAPSSKSTSGGTAALGCLVKDYFPEPVTVSWNSGALTSGVHTFPAVLQSSGLYSLSSVVTVPSSSLGTQTYICNVNHKPSNTKVDKKVEPKSCDKTHTCPPCPAPEAAGAPSVFLFPPKPKDTLMISRTPEVTCVVVDVSHEDPEVKFNWYVDGVEVHNAKTKPREEQYNSTYRVVSVLTVLHQDWLNGKEYKCKVSNKALPAPIEKTISKAKGQPREPQVCTLPPSREEMTKNQVSLWCLVKGFYPSDIAVEWESNGQPENNYKTTPPVLDSDGSFFLYSKLTVDKSRWQQGNVFSCSVLHEALHSHYTQKSLSLSPGK light: not shown | binds | binds | no binding (tested: 200 nM) |  |  |  |  |  |  |  |  |  |  |  |  |  | 
p40TL1A-0033 bispecific antibody (bispecific antibody, human IgG1, kappa, Single cell KiH, modified Fd format; IgG1 effector-function-minimized Fc with LS mutations) heavy: EVQLVQSGAEVKKPGESLKISCKGSGYSFTTYWLGWVRQMPGKGLDWIGIMSPVDSDIRYSPSFQGQVTMSVDKSITTAYLQWNSLKASDTAMYYCARRRPGQGYFDFWGQGTLVTVSSASTKGPSVFPLAPSSKSTSGGTAALGCLVKDYFPEPVTVSWNSGALTSGVHTFPAVLQSSGLYSLSSVVTVPSSSLGTQTYICNVNHKPSNTKVDKKVEPKSCDKTHTCPPCPAPEAAGAPSVFLFPPKPKDTLMISRTPEVTCVVVDVSHEDPEVKFNWYVDGVEVHNAKTKPREEQYNSTYRVVSVLTVLHQDWLNGKEYKCKVSNKALPAPIEKTISKAKGQPREPQVCTLPPSREEMTKNQVSLWCLVKGFYPSDIAVEWESNGQPENNYKTTPPVLDSDGSFFLYSKLTVDKSRWQQGNVFSCSVLHEALHSHYTQKSLSLSPGK light: not shown chain 1: not shown chain 2: QVQLVQSGAEVKKPGASVKVSCKASGYDYTYYGISWVRQAPGQGLEWMGWISTYNTGTHYAPSLQGRVTMTTDTSTSTAYMELRSLRSDDTAVYYCARESYYGSGAFRGGMDVWGQGTTVTVSSASTKGPSVFPLAPSSKSTSGGTAALGCLVKDYFPEPVTVSWNSGALTSGVHTFPAVLQSSGLYSLSSVVTVPSSSLGTQTYICNVNHKPSNTKVDKKVEPKSC |  |  |  | 0.0562 | 52400 | 0.34 | 5.05e-05 | 150000 | 1.09 | 0.000127 | 117000 | 288 | 0.00761 | 26700 | 0.267 | 0.000636 | 2.38e+06
